Measurements: article PMC2713256, “Tousled kinase TLK1B counteracts the effect of Asf1 in inhibition of histone H3–H4 tetramer formation” (BMC Research Notes, 2009)

How the values were obtained:
[1] = molecular target: T1, recombinant human TLK1B (GST-TLK1B) (human, UniProt Q9UKI8-3 1-549); test: pull-down; GST-TLK1B (5 ug with varying amounts of Asf1, or 1 ug each with and without 10 or 100 uM ATP and 1 mM MgCl2), 10 min at room temperature, adsorbed on GSH-Sepharose; bound and unbound fractions on 10% SDS-PAGE stained with Coomassie blue; details: both partners purified
T1 construct: Named GST-TLK1B in the pull-downs and only TLK1B in the cross-linking reactions; also called Tousled kinase TLK1B; source: recombinant, prepared as described previously [10]
T1 sequence (looked up): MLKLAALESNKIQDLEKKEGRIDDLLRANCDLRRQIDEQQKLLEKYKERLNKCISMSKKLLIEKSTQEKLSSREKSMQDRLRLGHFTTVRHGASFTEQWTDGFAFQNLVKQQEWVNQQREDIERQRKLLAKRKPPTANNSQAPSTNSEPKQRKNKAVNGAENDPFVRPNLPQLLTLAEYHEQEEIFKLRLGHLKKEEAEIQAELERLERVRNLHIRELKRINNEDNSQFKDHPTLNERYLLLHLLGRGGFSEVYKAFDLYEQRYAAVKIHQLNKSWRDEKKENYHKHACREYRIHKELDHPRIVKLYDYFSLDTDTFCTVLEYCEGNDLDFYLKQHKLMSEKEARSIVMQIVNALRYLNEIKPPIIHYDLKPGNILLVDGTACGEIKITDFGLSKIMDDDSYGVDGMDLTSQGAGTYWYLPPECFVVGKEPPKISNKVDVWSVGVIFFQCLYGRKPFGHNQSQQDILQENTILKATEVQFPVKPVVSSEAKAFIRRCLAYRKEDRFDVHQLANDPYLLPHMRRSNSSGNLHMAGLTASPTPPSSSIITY

[2] = molecular target: histone H3–H4 dimer (bovine | human) (UniProt P68432); test: cross-linking; combinations of H3, H4, Asf1 and TLK1B in equivalent amounts, no ATP, 5 min at room temperature in 50 mM phosphate buffer pH 7.2; 3 mM formaldehyde 5 min on ice, stopped with 50 mM glycine; SDS-PAGE, blots for H3, H4, Asf1 and TLK1B

B1: recombinant human Asf1B (natural protein, UniProt Q9NVP2 1-202, looked up)
chain: MAKVSVLNVAVLENPSPFHSPFRFEISFECSEALADDLEWKIIYVGSAESEEFDQILDSVLVGPVPAGRHMFVFQADAPNPSLIPETDAVGVTVVLITCTYHGQEFIRVGYYVNNEYLNPELRENPPMKPDFSQLQRNILASNPRVTRFHINWDNNMDRLEAIETQDPSLGCGLPLNCTPIKGLGLPGCIPGLLPENSMDCI
notes: Asf1B, histone H3-H4 chaperone, human, recombinant; source: recombinant, prepared as described previously [10]
With B1 the “stoichiometry N” value [1] was 1 and the percent inhibition of H3–H4 tetramer formation [2] was 57%.
